B1: TIMP3: blocks MMP activity (protein, UniProt P35625 24-211, looked up)
Metalloproteinase inhibitor 3: CTCSPSHPQDAFCNSDIVIRAKVVGKKLVKEGPFGTLVYTIKQMKMYRGFTKMPHVQYIHTEASESLCGLKLEVNKYQYLLTGRVYDGKMYTGLCNFVERWDQLTLSQRKGLNYRYHLGCNCKIKSCYYLPCFVTSKNECLWTDMLSNFGYPGYQSKHYACIRQKGGYCSWYRGWAPPDKSIINATDP
B2: KGF: keratinocyte growth factor, GFR ligand (protein, UniProt P21781 32-194, looked up)
Fibroblast growth factor 7: CNDMTPEQMATNVNCSSPERHTRSYDYMEGGDIRVRRLFCRTQWYLRIDKRGKVKGTQEMKNNYNIMEIRTVAVGIVAIKGVESEFYLAMNKEGKLYAKKECNEDCNFKELILENHYNTYASAKWTHNGGEMFVALNQKGIPVRGKKTKKEQKTAHFLPMAIT

Tested on: HPV16
Assay: HPV16 PsV infection of HaCaT cells, luciferase assay
Assay type: cell-based, human papillomavirus
Experimental: FIG. 2. […] (A, B) Immunoblot for syndecan-1 (polyclonal syndecan-1 Ab) after 24 hours at 37° C. in CM (A) or post starvation in SFM and after six hours at 37° C. in Tyrode's Buffer (B); immunoblot for HPV16 L1 released into CM post virus binding for indicated times (C) or 24 hours (E). […] Cells were untreated (U) or pre-treated with BM or MM for one hour, then exposed to HPV16 PsV in the presence of inhibitors in CM. Infection was assayed by quantifying luciferase levels at 24 hours p.i. (F). Data are represented as mean±SEM of three experiments. (G-H) IC50 of HPV16 infectivity inhibition by MMIP inhibitors batimastat and mariniastat. […] HPV16 infection was measured with luciferase assay. […]
FIG. 7. […] Cells were exposed to HPV16 PsV at 100 vge/cell for one hour at 4° C., then washed extensively and shifted to 37° C. in the presence of the indicated inhibitor in CM for 24 hours at which time they were analyzed for luciferase expression. […] (B-C) EGFR knockdown was accomplished using siRNA to EGFR and the percent of EGFR protein remaining in EGFR-siRNA transfected HaCaT cells was determined by immunoblot and compared by densitometry to EGFR levels in cells transfected with a negative control siRNA at 48 hours post transfection. Four separate transfections were analyzed (B) and HPV16 PsV infection levels were measured at 24 hours post infection (48 hours post transfection) in each (C). […]

Row | Molecule | HPV16 infection of HaCaT cells (in words) (CM, luciferase 24 hours p.i.) | restoration of HPV16 infectivity in SFM by added factor (serum-starved HaCaT, HPV16 bound in SFM, 24 hours in SFM plus factor, compared to CM)
1 | B1 | can prevent HPV16 infection | 
2 | B2 |  | partially restore infection levels
